In patent US20240270846A1 (published 2024):
Numbering of substitutions follows the chain as printed. Names may count otherwise. Where no end group is shown, it is not given here.

T1: biotin-labeled cynomolgus monkey CD137 fused to human IgG1 Fc fragment (cynomolgus monkey, UniProt Q07011 24-186 (human entry), limits assumed, biotin-labeled)
T1 construct: also called cyno CD137-Fc; not shown: human IgG1 Fc fragment
T1 chain: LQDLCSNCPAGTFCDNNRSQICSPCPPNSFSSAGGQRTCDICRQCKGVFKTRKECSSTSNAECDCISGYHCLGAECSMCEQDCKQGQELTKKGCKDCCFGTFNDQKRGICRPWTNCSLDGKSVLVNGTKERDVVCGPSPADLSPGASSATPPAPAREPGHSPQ

T2: biotin-labeled CD3 epsilon peptide antigen (human, also: biotin-labeled, position not given here)
T2 construct: Peptide of CD3 epsilon; also called CD3 peptide
T2 peptide: QDGNEEMGGITQTPY

B1: L chain one-amino acid altered form of GLS3000, G to Y at Kabat position 89 (one-arm antibody: CE115HA000-pE22Hh / Kn010G3 / altered GLS3000-kappa) (antibody, human IgG1, kappa, L234A L235A, N297A, name in Kabat numbering)
heavy: QVQLVESGGGVVQPGRSLRLSCAASGFTFSNAWMHWVRQAPGKGLEWVAQIKAKSNNYATYYAESVKGRFTISRDDSKNSLYLQMNSLKTEDTAVYYCRYVHYGAYYGVDAWGQGTTVTVSSASTKGPSVFPLAPSSKSTSGGTAALGCLVKDYFPEPVTVSWNSGALTSGVHTFPAVLQSSGLYSLSSVVTVPSSSLGTQTYICNVNHKPSNTKVDKKVEPKSCDKTHTCPPCPAPEAAGGPSVFLFPPKPKDTLMISRTPEVTCVVVDVSHEDPEVKFNWYVDGVEVHNAKTKPREEQYASTYRVVSVLTVLHQDWLNGKEYKCKVSNKALPAPIEKTISKAKGQPREPQVYTLPPSRCELTKNQVSLSCAVKGFYPSDIAVEWESNGQPENNYKTTPPVLDSDGSFFLVSKLTVDKSRWQQGNVFSCSVMHEALHNHYTQKSLSLSPDYKDDDDK
chain: EPKSSDKTHTCPPCPAPELLGGPSVFLFPPKPKDTLMISRTPEVTCVVVDVSHEDPEVKFNWYVDGVEVHNAKTKPREEQYNSTYRVVSVLTVLHQDWLNGKEYKCKVSNKALPAPIEKTISKAKGQPREPQVCTLPPSRDELTKNQVSLWCLVKGFYPSDIAVEWESNGQPENNYKTTPPVLDSDGSFFLYSKLTVDKSRWQQGNVFSCSVMHEALHNRYTQKSLSLSP
light: DIVMTQSPLSLPVTPGEPASISCRSSQSLVHSNRNTYLHWYQQKPGQAPRLLIYKVSNRFSGVPDRFSGSGSGTDFTLKISRVEAEDVGVYYCYQGTQVPYTFGQGTKLEIKRTVAAPSVFIFPPSDEQLKSGTASVVCLLNNFYPREAKVQWKVDNALQSGNSQESVTEQDSKDSTYSLSSTLTLSKADYEKHKVYACEVTHQGLSSPVTKSFNRGEC
notes: One-arm antibody (IgG lacking one Fab); also called GLS3000 G89Y
B2: L chain one-amino acid altered form of GLS3000, Q to Y at Kabat position 93 (one-arm antibody: CE115HA000-pE22Hh / Kn010G3 / altered GLS3000-kappa) (antibody, human IgG1, kappa, L234A L235A, N297A, name in Kabat numbering)
heavy: B1 heavy
chain: B1 chain
light: B1 light with Y94G, Q98Y
notes: One-arm antibody (IgG lacking one Fab); also called GLS3000 Q93Y
B3: L chain one-amino acid altered form of GLS3000, T to Y at Kabat position 92 (one-arm antibody: CE115HA000-pE22Hh / Kn010G3 / altered GLS3000-kappa) (antibody, human IgG1, kappa, L234A L235A, N297A, name in Kabat numbering)
heavy: B1 heavy
chain: B1 chain
light: B1 light with Y94G, T97Y
notes: One-arm antibody (IgG lacking one Fab); also called GLS3000 T92Y
B4: L chain one-amino acid altered form of GLS3000, G to Y at Kabat position 91 (one-arm antibody: CE115HA000-pE22Hh / Kn010G3 / altered GLS3000-kappa) (antibody, human IgG1, kappa, L234A L235A, N297A, name in Kabat numbering)
heavy: B1 heavy
chain: B1 chain
light: B1 light with Y94G, G96Y
notes: One-arm antibody (IgG lacking one Fab); also called GLS3000 G91Y
B5: L chain one-amino acid altered form of GLS3000, Q to Y at Kabat position 90 (one-arm antibody: CE115HA000-pE22Hh / Kn010G3 / altered GLS3000-kappa) (antibody, human IgG1, kappa, L234A L235A, N297A, name in Kabat numbering)
heavy: B1 heavy
chain: B1 chain
light: B1 light with Y94G, Q95Y
notes: One-arm antibody (IgG lacking one Fab); also called GLS3000 Q90Y
B6: L chain one-amino acid altered form of GLS3000, V to Y at Kabat position 94 (one-arm antibody: CE115HA000-pE22Hh / Kn010G3 / altered GLS3000-kappa) (antibody, human IgG1, kappa, L234A L235A, N297A, name in Kabat numbering)
heavy: B1 heavy
chain: B1 chain
light: B1 light with Y94G, V99Y
notes: One-arm antibody (IgG lacking one Fab); also called GLS3000 V94Y
B7: DXDU01_3#019 (antibody, human IgG1, V domains shown)
VH: QVQLVESGGGLVQPGRSLRLSCAASGFTFSIAWMHWVRQAPGKGLEWVAQIKDKVNGYTAYYAESVKGRFTISRDDSKNSIYLQMNSLKTEDTAVYYCRYVHYAAYYDVLGYGGVDAWGQGTTVTVSS
VL: DIVMTQSPLSLPVTPGEPASISCRSSQSLVHSNRNTYLHWYQQKPGQAPRLLIYKVSNRFSGVPDRFSGSGSGTDFTLKISRVEAEDVGVYYCGQGTQVPYTFGQGTKLEIK
notes: IgG: VH joined to human IgG1 CH1-Fc; also called dBBDu125
B8: DADU01_3#001 (antibody, human IgG1, V domains shown)
VH: B7 VH with K54R, G57A, T59E, E64P, A105S, V109L
VL: B7 VL
notes: IgG: VH joined to human IgG1 CH1-Fc; also called dBBDu_126; dBBDu126
B9: DXDU01_3#051 (antibody, human IgG1, V domains shown)
VH: QVQLVESGGGLVQPGRSLRLSCAASGFTFSNAWMHWVRQAPGKGLEWVAQIKDRGQQYNAYYAPSVKGRFTISRDDSKNSIYLQMNSLKTEDTAVYYCHYVHYASASSVLPGYGVDAWGQGTTVTVSS
VL: B7 VL
notes: IgG: VH joined to human IgG1 CH1-Fc; also called dBBDu127
B10: DXDU01_3#072 (antibody, human IgG1, V domains shown)
VH: B9 VH with G55S, Q57L, N59A, S108T, P111G, G112A
VL: B7 VL
notes: IgG: VH joined to human IgG1 CH1-Fc; also called dBBDu122
B11: DXDU01_3#094 (antibody, human IgG1, V domains shown)
VH: B9 VH with R54K, Q56N, Q57A, N59A, S107A, S108G, V109G, Y113F
VL: B7 VL
notes: IgG: VH joined to human IgG1 CH1-Fc; also called dBBDu121
B12: DADU01_3#001 (antibody, human IgG1, V domains shown)
VH: B7 VH with K54R, G57A, T59E, E64P, A105S, V109L
VL: DIVMTQSPLSLPVTPGEPASISCRSSQSLVHSNRNTYLHWYQQKPGQAPRLLIYKVSNRFSGVPDRFSGSGSGTDFTLKISRVEAEDVGVYYCGQGTQVPYTFGQGTKLEIKR
notes: also called dBBDu_126; dBBDu126
B13: anti-human CD137 antibody described in WO2005/035584A1 (abbreviated as B) (antibody, V domains shown)
VH: QVQLQQWGAGLLKPSETLSLTCAVYGGSFSGYYWSWIRQSPEKGLEWIGEINHGGYVTYNPSLESRVTISVDTSKNQFSLKLSSVTAADTAVYYCARDYGPGNYDWYFDLWGRGTLVTVSS
VL: EIVLTQSPATLSLSPGERATLSCRASQSVSSYLAWYQQKPGQAPRLLIYDASNRATGIPARFSGSGSGTDFTLTISSLEPEDFAVYYCQQRSNWPPALTFGGGTKVEIK
notes: Control antibody; also called control anti-CD137 antibody
B14: DADU01_3#002 (antibody, human IgG1, V domains shown)
VH: B9 VH with R54K, G55Q, Q56N, Q57L, P64E, S108T, G112A, Y113F
VL: B12 VL
notes: also called dBBDu124
B15: DXDU01_3#094 (antibody, human IgG1, V domains shown)
VH: B9 VH with R54K, Q56N, Q57A, N59A, S107A, S108G, V109G, Y113F
VL: B12 VL
notes: also called dBBDu121
B16: DXDU01_3#051 (antibody, human IgG1, V domains shown)
VH: B9 VH
VL: B12 VL
notes: also called dBBDu127
B17: DXDU01_3#019 (antibody, human IgG1, V domains shown)
VH: B7 VH
VL: B12 VL
notes: also called dBBDu125
B18: DADU01_3#018 (antibody, human IgG1, V domains shown)
VH: B9 VH with G55A, Q56N, Q57S, A104S, S105A, S108T, V109L, G112S, Y113F
VL: B12 VL
notes: also called dBBDu123

These binders were tested against T3, CD3 epsilon homodimer protein (UniProt P07766 23-126) (assay: SPR, Biacore T200, CD3 epsilon homodimer immobilized on CM4, one-arm antibody as analyte, 25 degrees C).
T3 construct: also called CD3 (CD3 epsilon)

In order of rising “ratio of amounts bound (Z = Y/X) against the unaltered GLS3000 antibody” value:
1. B4  0.17
2. B5  0.17
3. B3  0.33
4. B6  0.63
5. B2  0.87
6. B1  1.19

Each binder was assayed against T4, biotin-labeled human CD137 fused to human IgG1 Fc fragment (human, biotin-labeled) (assay: bead ELISA; RLU on human CD137-Fc divided by RLU on human Fc).
T4 construct: also called human CD137-Fc; biotin-human CD137-Fc

In order of rising “S/N ratio human CD137-Fc/Fc” value:
1. B10  6.58
2. B11  10.2
3. B9  13.1
4. B7  23.8
5. B8  54.1

What follows are binders tested against T5, biotin-labeled human CD137 fused to human IgG1 Fc fragment (human CD137-Fc) (human, biotin-labeled) (assay: competitive bead ELISA, biotin-human CD137-Fc on beads, 100 ng IgG, competitor free CD3 epsilon peptide 62.5 pmol).
T5 construct: also called biotin-human CD137-Fc

In order of rising “ELISA signal with Free CD3e 62.5 pmol” value:
1. B18  9020
2. B15  9660
3. B14  9970
4. B16  10800
5. B17  12800
6. B12  15100
7. B13  183000

Molecular target: T1, biotin-labeled cynomolgus monkey CD137 …
Test: bead ELISA; RLU on cyno CD137-Fc divided by RLU on human Fc

In order of rising “S/N ratio cyno CD137-Fc/Fc” value:
1. B8  0.687
2. B7  1.56
3. B10  1.56
4. B9  3.73
5. B11  8.09

Molecular target: T2, biotin-labeled CD3 epsilon peptide …
Test: bead ELISA, biotin-CD3 epsilon peptide on streptavidin beads, 100 ng IgG

In order of falling “RLU, CD3 peptide” value:
1. B12  198000 RLU
2. B17  191000 RLU
3. B18  182000 RLU
4. B14  174000 RLU
5. B16  169000 RLU
6. B15  165000 RLU

In order of rising “S/N ratio CD3 peptide/non coating” value:
1. B15  141
2. B16  145
3. B12  146
4. B18  149
5. B14  156
6. B17  161

These binders were tested against T5, biotin-labeled human CD137 fused to … (assay: competitive bead ELISA, biotin-human CD137-Fc on beads, 100 ng IgG, control competitor free human Fc 62.5 pmol).

In order of rising “ELISA signal with Free Fc 62.5 pmol” value:
1. B12  81000
2. B15  108000
3. B18  117000
4. B16  128000
5. B14  155000
6. B17  172000
7. B13  184000

What follows are binders tested against T5, biotin-labeled human CD137 fused to … (assay: competitive bead ELISA, biotin-human CD137-Fc on beads; free CD3e 62.5 pmol against free Fc 62.5 pmol).

In order of falling Signal decrease:
1. B14  93.6%
2. B17  92.5%
3. B18  92.3%
4. B16  91.6%
5. B15  91.1%
6. B12  81.3%
7. B13  0.94%

Each binder was assayed against T4, biotin-labeled human CD137 fused to … (assay: bead ELISA (chemiluminescence), purified IgG on biotin labeled human CD137-Fc on streptavidin beads).

In order of rising RLU:
1. B10  14100 RLU
2. B11  24200 RLU
3. B9  38100 RLU
4. B7  77800 RLU
5. B8  95300 RLU

Molecular target: T1, biotin-labeled cynomolgus monkey CD137 …
Test: bead ELISA (chemiluminescence), purified IgG on biotin labeled cyno CD137-Fc on streptavidin beads

In order of rising RLU:
1. B8  1210 RLU
2. B10  3350 RLU
3. B7  5090 RLU
4. B9  10900 RLU
5. B11  19100 RLU
